Measured values: US20050260730A1, “CDK2/cyclin A crystals and uses thereof” (priority 2003, published 2005)
Non-standard residues stand in square brackets, D forms with d. Phe(4-F) = N[C@@H](Cc1ccc(F)cc1)C(=O)O

Molecular target: cyclin A (human) (UniProt P20248)
Assay: competitive cyclin A binding assay

## H-RRL[Phe(4-F)]-NH2
  IC50: 19 µM
